Data: patent US20230357348A1 (AstraZeneca / MedImmune, published 2023)
Starred links: 1 amine or outer side, 2 acyl side, 3 side chain; linkers in the order of their positions; H or OH if unused. Non-standard residues stand in square brackets, D forms with d. Groups on a side chain read outwards from the residue. No end group written: not given here. *: point of attachment. PEG12 = NCCOCCOCCOCCOCCOCCOCCOCCOCCOCCOCCOCCOCCC(=O)O; C18 diacid = O=C(O)CCCCCCCCCCCCCCCCC(=O)*; PEG8 = NCCOCCOCCOCCOCCOCCOCCOCCOCCC(=O)O; Dip = N[C@H](C(=O)O)C(c1ccccc1)c1ccccc1; Heptadecanoyl = CCCCCCCCCCCCCCCCC(=O)*; γGlu = O=C(O)[C@H](CCC(=O)[*:2])N[*:1]; Stearoyl = CCCCCCCCCCCCCCCCCC(=O)*; Palmitoyl = CCCCCCCCCCCCCCCC(=O)*; αMeF = C[C@](N)(Cc1ccccc1)C(=O)O; (PEG)2 = polyethylene glycol 2; PEG4 = NCCOCCOCCOCCOCCC(=O)O; Dodecyl = CCCCCCCCCCCC*; Aib = CC(C)(N)C(=O)O

Legend:
[1] = target: human GLP-1 receptor (hGLP-1R) (human, UniProt P43220 24-463); test: cell-based or functional assay
[2] = target: human glucagon receptor (hGCGR) (human, UniProt P47871 26-477); test: cell-based or functional assay
human glucagon receptor (hGCGR), sequence (P47871 26-477): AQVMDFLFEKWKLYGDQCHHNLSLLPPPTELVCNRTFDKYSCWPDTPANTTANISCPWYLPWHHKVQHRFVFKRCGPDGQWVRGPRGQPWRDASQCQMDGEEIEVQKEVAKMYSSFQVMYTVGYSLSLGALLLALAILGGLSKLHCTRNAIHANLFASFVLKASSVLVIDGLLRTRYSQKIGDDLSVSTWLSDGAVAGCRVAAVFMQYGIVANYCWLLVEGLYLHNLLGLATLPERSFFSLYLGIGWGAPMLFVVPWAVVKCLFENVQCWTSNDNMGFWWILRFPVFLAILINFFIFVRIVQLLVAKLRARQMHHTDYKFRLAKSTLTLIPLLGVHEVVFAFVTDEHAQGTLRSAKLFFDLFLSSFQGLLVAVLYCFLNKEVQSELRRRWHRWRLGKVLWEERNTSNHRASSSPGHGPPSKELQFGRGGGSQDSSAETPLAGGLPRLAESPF

Row | Binder | hGLP-1R EC50 (pM) [1] [pM] | hGluc-R EC50 (pM) [2] [pM]
1 | H[Aib]HGS[αMeF]TSDVSK[αMeF]LDSK([γGlu-C18 diacid])AAQD[αMeF]VEWIANT-NH2 (N-terminus assumed; SMILES CC[C@H](C)[C@H](NC(=O)[C@H](Cc1c[nH]c2ccccc12)NC(=O)[C@H](CCC(=O)O)NC(=O)[C@@H](NC(=O)[C@](C)(Cc1ccccc1)NC(=O)[C@H](CC(=O)O)NC(=O)[C@H](CCC(N)=O)NC(=O)[C@H](C)NC(=O)[C@H](C)NC(=O)[C@H](CCCCNC(=O)CC[C@H](NC(=O)CCCCCCCCCCCCCCCCC(=O)O)C(=O)O)NC(=O)[C@H](CO)NC(=O)[C@H](CC(=O)O)NC(=O)[C@H](CC(C)C)NC(=O)[C@](C)(Cc1ccccc1)NC(=O)[C@H](CCCCN)NC(=O)[C@H](CO)NC(=O)[C@@H](NC(=O)[C@H](CC(=O)O)NC(=O)[C@H](CO)NC(=O)[C@@H](NC(=O)[C@](C)(Cc1ccccc1)NC(=O)[C@H](CO)NC(=O)CNC(=O)[C@H](Cc1c[nH]cn1)NC(=O)C(C)(C)NC(=O)[C@@H](N)Cc1c[nH]cn1)[C@@H](C)O)C(C)C)C(C)C)C(=O)N[C@@H](C)C(=O)N[C@@H](CC(N)=O)C(=O)N[C@H](C(N)=O)[C@@H](C)O) [Peptide 7] | 84.6 | 30.7
2 | HSQGS[αMeF]TSDVSK[αMeF]LDSK([(PEG)2-(PEG)2-γGlu-γGlu-Palmitoyl])AAQD[αMeF]VQ[Aib]LEAGG-NH2 [Peptide 79] | 1.73 | 10.7
3 | H[Aib]QGS[αMeF]TSDVSK[Dip]LDSK([(PEG)2-(PEG)2-γGlu-Palmitoyl])AAQD[αMeF]VQ[Aib]IAN-NH2 [Peptide 67] | 2.43 | 9.49
4 | HSQGS[αMeF]TSDVSK[Dip]LDSK([PEG12-γGlu-γGlu-Stearoyl])AAQD[αMeF]VE[Aib]IINT-NH2 (N-terminus assumed; SMILES CCCCCCCCCCCCCCCCCC(=O)N[C@@H](CCC(=O)N[C@@H](CCC(=O)NCCOCCOCCOCCOCCOCCOCCOCCOCCOCCOCCOCCOCCC(=O)NCCCC[C@H](NC(=O)[C@H](CO)NC(=O)[C@H](CC(=O)O)NC(=O)[C@H](CC(C)C)NC(=O)[C@@H](NC(=O)[C@H](CCCCN)NC(=O)[C@H](CO)NC(=O)[C@@H](NC(=O)[C@H](CC(=O)O)NC(=O)[C@H](CO)NC(=O)[C@@H](NC(=O)[C@](C)(Cc1ccccc1)NC(=O)[C@H](CO)NC(=O)CNC(=O)[C@H](CCC(N)=O)NC(=O)[C@H](CO)NC(=O)[C@@H](N)Cc1c[nH]cn1)[C@@H](C)O)C(C)C)C(c1ccccc1)c1ccccc1)C(=O)N[C@@H](C)C(=O)N[C@@H](C)C(=O)N[C@@H](CCC(N)=O)C(=O)N[C@@H](CC(=O)O)C(=O)N[C@@](C)(Cc1ccccc1)C(=O)N[C@H](C(=O)N[C@@H](CCC(=O)O)C(=O)NC(C)(C)C(=O)N[C@H](C(=O)N[C@H](C(=O)N[C@@H](CC(N)=O)C(=O)N[C@H](C(N)=O)[C@@H](C)O)[C@@H](C)CC)[C@@H](C)CC)C(C)C)C(=O)O)C(=O)O) [Peptide 58] | 3.9 | 11.3
5 | HSQGS[αMeF]TSDVSK[Dip]LDSKAAQD[αMeF]VE[Aib]IINT-NH2 (not fully specified (residue 17)) [Peptide 65] | 1230 | 2060
6 | HSQGS[αMeF]TSDVSK[Dip]LDSK([(PEG)2-(PEG)2-γGlu-γGlu-Dodecyl])AAQD[αMeF]VE[Aib]IINT-NH2 [Peptide 62] | 10.1 | 15.2
7 | HSQGS[αMeF]TSDVSK[αMeF]LDSKAAQD[αMeF]VQ[Aib]LEAGG-NH2 (not fully specified (residue 17)) [Peptide 80] | 1.03 | 9.18
8 | HSQGS[αMeF]TSDVSK[αMeF]LDSK([(PEG)2-(PEG)2-γGlu-γGlu-Palmitoyl])AAQD[αMeF]VQ[Aib]IAN-NH2 [Peptide 87] | 1.29 | 8.46

Second part, the binder after the results:

Row | hGLP-1R EC50 (pM) [1] [pM] | hGluc-R EC50 (pM) [2] [pM] | Binder
9 | 4.12 | 9.55 | HSQGS[αMeF]TSDVSK[Dip]LDSK([(PEG)2-γGlu-(PEG)2-γGlu-Stearoyl])AAQD[αMeF]VE[Aib]IINT-NH2 [Peptide 61]
10 | 18.8 | 19.1 | HSQGS[αMeF]TSDVSK[Dip]LDSK([(PEG)2-(PEG)2-γGlu-γGlu-Stearoyl])AAQD[αMeF]VQ[Dip]LEA-NH2 [Peptide 55]
11 | 3.42 | 73.7 | H[Aib]QGS[αMeF]TSDVSK[αMeF]LDSK([PEG4-γGlu-γGlu-Palmitoyl])AAQD[αMeF]VE[Aib]LEAGG-NH2 (N-terminus assumed; SMILES CCCCCCCCCCCCCCCC(=O)N[C@@H](CCC(=O)N[C@@H](CCC(=O)NCCOCCOCCOCCOCCC(=O)NCCCC[C@H](NC(=O)[C@H](CO)NC(=O)[C@H](CC(=O)O)NC(=O)[C@H](CC(C)C)NC(=O)[C@](C)(Cc1ccccc1)NC(=O)[C@H](CCCCN)NC(=O)[C@H](CO)NC(=O)[C@@H](NC(=O)[C@H](CC(=O)O)NC(=O)[C@H](CO)NC(=O)[C@@H](NC(=O)[C@](C)(Cc1ccccc1)NC(=O)[C@H](CO)NC(=O)CNC(=O)[C@H](CCC(N)=O)NC(=O)C(C)(C)NC(=O)[C@@H](N)Cc1c[nH]cn1)[C@@H](C)O)C(C)C)C(=O)N[C@@H](C)C(=O)N[C@@H](C)C(=O)N[C@@H](CCC(N)=O)C(=O)N[C@@H](CC(=O)O)C(=O)N[C@@](C)(Cc1ccccc1)C(=O)N[C@H](C(=O)N[C@@H](CCC(=O)O)C(=O)NC(C)(C)C(=O)N[C@@H](CC(C)C)C(=O)N[C@@H](CCC(=O)O)C(=O)N[C@@H](C)C(=O)NCC(=O)NCC(N)=O)C(C)C)C(=O)O)C(=O)O) [Peptide 72]
12 | 9.09 | 16.9 | HSQGS[αMeF]TSDVSK[Dip]LDSK([PEG8-γGlu-γGlu-Stearoyl])AAQD[αMeF]VE[Aib]IINT-NH2 (N-terminus assumed; SMILES CCCCCCCCCCCCCCCCCC(=O)N[C@@H](CCC(=O)N[C@@H](CCC(=O)NCCOCCOCCOCCOCCOCCOCCOCCOCCC(=O)NCCCC[C@H](NC(=O)[C@H](CO)NC(=O)[C@H](CC(=O)O)NC(=O)[C@H](CC(C)C)NC(=O)[C@@H](NC(=O)[C@H](CCCCN)NC(=O)[C@H](CO)NC(=O)[C@@H](NC(=O)[C@H](CC(=O)O)NC(=O)[C@H](CO)NC(=O)[C@@H](NC(=O)[C@](C)(Cc1ccccc1)NC(=O)[C@H](CO)NC(=O)CNC(=O)[C@H](CCC(N)=O)NC(=O)[C@H](CO)NC(=O)[C@@H](N)Cc1c[nH]cn1)[C@@H](C)O)C(C)C)C(c1ccccc1)c1ccccc1)C(=O)N[C@@H](C)C(=O)N[C@@H](C)C(=O)N[C@@H](CCC(N)=O)C(=O)N[C@@H](CC(=O)O)C(=O)N[C@@](C)(Cc1ccccc1)C(=O)N[C@H](C(=O)N[C@@H](CCC(=O)O)C(=O)NC(C)(C)C(=O)N[C@H](C(=O)N[C@H](C(=O)N[C@@H](CC(N)=O)C(=O)N[C@H](C(N)=O)[C@@H](C)O)[C@@H](C)CC)[C@@H](C)CC)C(C)C)C(=O)O)C(=O)O) [Peptide 57]
13 | 1.04 | 6.47 | HSQGS[αMeF]TSDVSK[αMeF]LDSK([(PEG)2-(PEG)2-γGlu-γGlu-Heptadecanoyl])AAQD[αMeF]VQ[Aib]IAN-NH2 [Peptide 88]
14 | 5.16 | 21.1 | HSQGS[αMeF]TSDVSK[Dip]LDSK([γGlu-(PEG)2-γGlu-(PEG)2-Stearoyl])AAQD[αMeF]VE[Aib]IINT-NH2 [Peptide 60]
15 | 2.57 | 3.06 | HSQGS[αMeF]TSDVSK[Dip]LDSK([(PEG)2-(PEG)2-γGlu-γGlu-Palmitoyl])AAQD[αMeF]VE[Aib]IINT-NH2 [Peptide 64]
16 | 6.18 | 28.4 | HSQGS[αMeF]TSDVSK[Dip]LDSK([γGlu-γGlu-(PEG)2-(PEG)2-Stearoyl])AAQD[αMeF]VE[Aib]IINT-NH2 [Peptide 59]
17 | 3.14 | 2.49 | HSQGS[αMeF]TSDVSK[Dip]LDSK([(PEG)2-(PEG)2-γGlu-γGlu-Myristyl])AAQD[αMeF]VE[Aib]IINT-NH2 [Peptide 63]
18 | 4.86 | 10.9 | HSQGS[αMeF]TSDVSK[Dip]LDSK([PEG4-γGlu-γGlu-Stearoyl])AAQD[αMeF]VE[Aib]IINT-NH2 (N-terminus assumed; SMILES CCCCCCCCCCCCCCCCCC(=O)N[C@@H](CCC(=O)N[C@@H](CCC(=O)NCCOCCOCCOCCOCCC(=O)NCCCC[C@H](NC(=O)[C@H](CO)NC(=O)[C@H](CC(=O)O)NC(=O)[C@H](CC(C)C)NC(=O)[C@@H](NC(=O)[C@H](CCCCN)NC(=O)[C@H](CO)NC(=O)[C@@H](NC(=O)[C@H](CC(=O)O)NC(=O)[C@H](CO)NC(=O)[C@@H](NC(=O)[C@](C)(Cc1ccccc1)NC(=O)[C@H](CO)NC(=O)CNC(=O)[C@H](CCC(N)=O)NC(=O)[C@H](CO)NC(=O)[C@@H](N)Cc1c[nH]cn1)[C@@H](C)O)C(C)C)C(c1ccccc1)c1ccccc1)C(=O)N[C@@H](C)C(=O)N[C@@H](C)C(=O)N[C@@H](CCC(N)=O)C(=O)N[C@@H](CC(=O)O)C(=O)N[C@@](C)(Cc1ccccc1)C(=O)N[C@H](C(=O)N[C@@H](CCC(=O)O)C(=O)NC(C)(C)C(=O)N[C@H](C(=O)N[C@H](C(=O)N[C@@H](CC(N)=O)C(=O)N[C@H](C(N)=O)[C@@H](C)O)[C@@H](C)CC)[C@@H](C)CC)C(C)C)C(=O)O)C(=O)O) [Peptide 56]
